The source of these data is PMC10920075 (Nature structural & molecular biology, 2023).

The data set concerns the molecule itself. Nature of the data set: cryo-EM structure.

B1: DNA polymerase γ accessory subunit PolγB (natural protein, human, UniProt Q9UHN1 26-485, looked up)
chain: DAGQPELLTERSSPKGGHVKSHAELEGNGEHPEAPGSGEGSEALLEICQRRHFLSGSKQQLSRDSLLSGCHPGFGPLGVELRKNLAAEWWTSVVVFREQVFPVDALHHKPGPLLPGDSAFRLVSAETLREILQDKELSKEQLVAFLENVLKTSGKLRENLLHGALEHYVNCLDLVNKRLPYGLAQIGVCFHPVFDTKQIRNGVKSIGEKTEASLVWFTPPRTSNQWLDFWLRHRLQWWRKFAMSPSNFSSSDCQDEEGRKGNKLYYNFPWGKELIETLWNLGDHELLHMYPGNVSKLHGRDGRKNVVPCVLSVNGDLDRGMLAYLYDSFQLTENSFTRKKNLHRKVLKLHPCLAPIKVALDVGRGPTLELRQVCQGLFNELLENGISVWPGYLETMQSSLEQLYSKYDEMSILFTVLVTETTLENGLIHLRSRDTTMKEMMHISKLKDFLIKYISSAKNV
Usually stoichiometry N stands for a count of units in the complex or per binding partner. Consider B1, for which the “stoichiometry N” value came out at 2.
